The values that follow come from paper doi:10.1101/2020.09.22.308395.

The target in the assay is UDP-GlcNAc 4-epimerase (Gne) from Campylobacter jejuni (Campylobacter jejuni). Nature of the assay: SEC-MALLS.

For “UDP-GlcNAc 4-epimerase (Gne) from Campylobacter jejuni (enzyme)”, the stoichiometry N (in general, a count of units in the complex or per binding partner) worked out at 2.
